Measured values from article PMC9378701, “SH3 domain regulation of RhoGAP activity: Crosstalk between p120RasGAP and DLC1 RhoGAP” (Nature Communications, 2022).

T1: DLC1 RhoGAP domain (residues 1074-1283), His6-tagged (human, UniProt Q96QB1 1074-1283)
T1 construct: RhoGAP domain of human DLC1A, residues 1074-1283 of UniProt Q96QB1 isoform 2; Vector pET28-MHL; also called DLC1A; His6-DLC1; source: E. coli BL21(DE3) or Rosetta(DE3), purified (Ni-NTA, SEC)
T1 sequence (looked up): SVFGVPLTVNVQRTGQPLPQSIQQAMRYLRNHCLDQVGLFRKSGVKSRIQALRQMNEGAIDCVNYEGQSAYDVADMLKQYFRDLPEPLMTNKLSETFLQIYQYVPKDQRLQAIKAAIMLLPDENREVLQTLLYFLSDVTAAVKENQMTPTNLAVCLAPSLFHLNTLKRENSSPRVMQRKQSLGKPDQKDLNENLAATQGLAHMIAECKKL


Legend:
[1] = target: DLC1 RhoGAP (Homo sapiens) (UniProt Q96QB1); experiment: ITC; settings: cited from earlier work
Chain of DLC1 RhoGAP (Homo sapiens) (Q96QB1 1075-1287): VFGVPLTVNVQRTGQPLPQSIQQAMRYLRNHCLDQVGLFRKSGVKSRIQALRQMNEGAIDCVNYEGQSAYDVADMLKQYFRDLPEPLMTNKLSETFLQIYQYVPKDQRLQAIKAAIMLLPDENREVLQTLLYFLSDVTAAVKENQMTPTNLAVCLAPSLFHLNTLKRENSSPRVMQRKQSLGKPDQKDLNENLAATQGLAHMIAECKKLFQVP

[2] = target: DLC1 RhoGAP (Homo sapiens) (UniProt Q96QB1); experiment: kinetics; settings: cited from earlier work
[3] = target: T1, DLC1 RhoGAP domain (residues …); experiment: crystal structure; copurified complex of DLC1 RhoGAP with p120RasGAP SH3 at 18 mg/ml; 0.2 M magnesium nitrate, 16.5% PEG 3350, hanging drops, ambient temperature (~22 °C); 3.2 Å, four copies of the complex in the asymmetric unit; settings: both partners purified

Chain of p120RasGAP SH3 (P20936 276-344): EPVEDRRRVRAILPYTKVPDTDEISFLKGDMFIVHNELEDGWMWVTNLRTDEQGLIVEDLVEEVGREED

binding result [3]	Molecule	Kd [1] [nM]	Ki [2] [nM]
	p120RasGAP SH3 (from UniProt P20936)	600	600
binds	p120RasGAP SH3 domain (residues 281-341) (domain or fragment, human, UniProt P20936 281-341, looked up, SH3 domain of human p120RasGAP, residues 281-341 of UniProt P20936; Vector pGEX-6p1; also called SH3 WT; RASA1; source: E. coli BL21(DE3) or Rosetta(DE3), purified (glutathione Sepharose, PreScission cleavage on beads, SEC)) RRRVRAILPYTKVPDTDEISFLKGDMFIVHNELEDGWMWVTNLRTDEQGLIVEDLVEEVGR		
